Molecular target: 3xFLAG::mScarlet::WAGO-4 (UniProt O62275)
Test: in vitro phase separation (condensate partitioning, confocal fluorescence microscopy)

other: condensed / dilute phase mScarlet::WAGO-4 fluorescence ratio (second replicate, n = 36 ROIs, buffer-only negative control ratios in the same panel: WT 1.36, FG* 1.41, parent: 2.45): 2.09
other: condensed / dilute phase mScarlet::WAGO-4 fluorescence ratio (single experiment, n = 32-36 ROIs, buffer-only negative control ratios in the same panel: WT 1.36, FG* 1.32, parent: 3.04): 2.53
Substance: minimal P granules (condensates of PGL-1, PGL-3, GLH-1 and GLH-4 with poly-A+ mRNA), WT GLH-1 and GLH-4 (from UniProt Q9TZQ3;G5EBV6;P34689;O76743) GLH-1(F→A); GLH-4(F→A)

— publication PMC12669755
